The results in this text go back to patent US20100316642A1, “COMPLEXES OF GRP94 WITH HUMAN IMMUNOGLOBULIN G” (priority 2007, published 2010).

The subject of experiment [1] is HSP90 and HSP70 expression in HUVECs. Description: Expression of HSP90, HSP70 and IgG in HUVEC lysates and conditioned media (SDS-PAGE, Western blotting). The experiment is classed as cell-based, human. The procedure:
2. Effects on the expression of HSP70 and HSP90 in HUVECs: hereafter are described in detail the method and results shown in FIG. 3(A) referred to experiments performed after 20-h incubation of cells in the presence of Grp94 (10 ng/ml), both alone and with IgG, with and without the inhibitor U0126 (10 μM, final concentration). Cells were detached from wells and treated with lysis buffer (50 mM Tris-HCl, pH 8.9, 5 mM EDTA, 380 mM glycine, 2% SDS, 7 mM β-mercaptoethanol). Whole cell lysates were analyzed in SDS-PAGE (10% polyacrylamide gel) followed by Western blotting with anti-HSP90, anti-HSP70 and anti-human IgG Abs. The same quantity of proteins (determined by means of densitometric analysis made on common bands in any lysates) was loaded in each well in SDS-PAGE. Arrows on left mark bands in the lanes that are also shared by nearby lanes on right. […] It is worth noting that band positive for IgG appear at the same masses at which also focuses HSP70. In the presence of the inhibitor, the HSP90 expression is blocked, whereas that of both HSP70 and IgG is still evident in cells after treatment, especially in bands at higher molecular masses. Western blotting for each type of protein is representative of at least three other experiments made on the same samples on different occasions.
The analysis made on cell lysates was also conducted on conditioned media (collected from the same cell cultures on which lysates were obtained, as reported above). Media were collected from duplicate wells, centrifuged for removing cell debris, extensively dialyzed, lyophilized and submitted to electrophoresis analysis followed by Western blotting with anti-HSP90, anti-HSP70 and anti-human IgG Abs (as above, for cell lysates). […] In particular, it was observed that the secreted species of HSP90, HSP70 and IgG were only those induced by treatments with Grp94, especially in complexes with IgG.
In general terms: Immunoblotting shows a protein as a band on a membrane.

For experiment [2], the system named is HUVECs. Description: Microscopic evaluation of morphogenic (angiogenic) transformation of HUVECs. The experiment is classed as cell-based, human.
Experiment [3] concerns human umbilical vein endothelial cells (HUVECs). Briefly: Cell growth stimulation of HUVECs (cell count in hemocytometer). The experiment is classed as cell-based. The settings on record: U0126 10 μM alone, no Grp94, control without inhibitor (DMSO 0.1%) 98.01±5.4×10^3.
Protocol: Cells were grown in endothelial basal medium supplemented with fetal bovine serum (FBS) at 10%, and after a starving period of 8-10 h in absence of FBS, fresh serum-free medium was added (2 ml) together with Grp94 (at the final concentration of 1 and 10 ng/ml) both alone and with IgG (at the molar ratio of 1:1). After an incubation period of 20 h, the medium was collected and cells detached from duplicate wells and counted in a hemocytometer. Cell viability was evaluated with the trypan blue dye exclusion method; trypan blue only enters cells with an altered, but not intact membrane permeability.
Histograms in FIG. 2(B) represent the number of cells grown with Grp94 (10 ng/ml), both alone and in the presence of IgG, with the addition of the inhibitor U0126 (10 μM, final concentration). […] The inhibitor was added to cell cultures 30 min before the addition of Grp94, both alone and with IgG. […] Asterisks on bars mark statistically significant (*, p<0.05) and highly significant (**, p<0.001) differences with respect to control values (empty bars).
Another experiment deals with human IgG. Description: Dot-blot analysis of Grp94 binding to human IgG. The note with it: human IgG 4 μg/ml, 8 h room temperature. The procedure:
In dot-blot experiments, strips of PVDF membrane were rinsed first in methanol (1 min) and then in de-ionized water (1 min) and let partially dry (3 min). Dots were made with 10 μl of Grp94 (2 μg). Grp94 solution (in bi-distilled water) was used as such (without any treatment) or after boiling for 2 min. Dots with each of the Grp94 solutions (both untreated and boiled) were made in duplicate on membrane strips that were incubated in both absence (control, in TBS only) and presence of human IgG (4 μg/ml) for 8 h at room temperature. Membrane strips were then incubated overnight with a blocking solution of BSA (1%) and Tween (0.2%), followed by washings with TBS (for 1 h) and a further incubation with primary sheep anti-human IgG Abs (2.5 μg/ml). After repeated washings with TBS (for 1 h), membrane strips were then immersed in the solution of secondary Abs (donkey anti-sheep IgG Abs) for 1 h and probed with the detection solution. Control strips with dots of Grp94 incubated with TBS alone were probed with both primary and secondary Abs, and with secondary Abs alone.

For experiment [4], the system named is HUVECs. Description: Confocal microscopy of HSP90/HSP70 fluorescence and cytoskeleton changes in HUVECs. The format is cell-based, human. The note with it: Grp94 10 ng/ml, serum-free medium. The procedure:
Cells were cultured in serum-free medium both without any treatment (control, panels a) and with the addition of both Grp94 alone (10 ng/ml) (panels b) and Grp94 in complexes with IgG (panels c), as specified above. In FIG. 4(A) is shown the fluorescence (evidenced with confocal microscopy) due to anti-HSP90 Abs reacting with HSP90 in both control and treated HUVECs (panels a, b and c on left). Intensity of the fluorescence is increased in cells treated with Grp94, especially when present in complexes with IgG. […] Of interest is the co-location of HSP90 with actin, mostly evident in podosomes, underlined by the pale blue fluorescence due to merging of the green and blue fluorescence of HSP90 and actin, respectively (panels on right). In FIG. 4(B) is shown the fluorescence due to HSP70 following the addition to cell cultures of anti-HSP70 Abs, similarly to what reported for anti-HSP90 Abs. […] Arrow heads in both (A) and (B) mark some of the most significant structural changes in the cell cytoskeleton (inserts in panels on right).

The test system of experiment [5] is human peripheral blood mononuclear cells (PBMCs). Description: Growth stimulation of PBMCs (cell count after 2-week culture). The note with it: 2-week incubation, no FBS, control 10% FBS. The experiment is classed as cell-based. The procedure:
4. Effects of stimulation of PBMC: PBMC were obtained from blood using the method of the Ficoll-Paque gradient. A sample of about 25 ml of buffy-coat (concentrated sample of red blood cells, white blood cells and platelets) was obtained after centrifugation of 250 ml of blood. The buffy-coat, containing about 300-600 million of PBMCs (1 million/ml of blood sample), was put in a 50-ml Falcon test-tube with the addition of a volume of RPMI (Roswell Park Memorial Institute) medium equal to half of the buffy-coat volume. The first step of PBMC separation included the preparation of the Ficoll solution in aliquots kept in the dark at +4° C. Five ml of buffy-coat were dropped on 4 ml of Ficoll solution put in Falcon test-tube (14-ml capacity). After centrifugation at 600×g for 30 min in swinging buket rotor, the white disk of PBMCs stratified between the upper […] (red blood cells instead precipitate to the bottom), and was thus recovered with a Pasteur pipette. The fractions of PBMCs were mixed together in a Falcon test-tube (50-ml capacity) and fresh RPMI medium added up to the volume of 50 ml. After centrifugation at 600×g for 15 min, the supernatant was discarded and the pellet washed twice by adding the medium up to the volume of 50 ml, each washing being followed by centrifugation at 300×g for 10 min. After the last centrifugation, the pellet was re-suspended with RPMI medium up to 50 ml of volume.
The count of PBMCs was made on a diluted solution of PBMCs, mixing 50 μl of the starting solution in 250 μl (final volume) of Turk dye solution (in acetic acid). The cell count was made in a common cell-counting chamber.
In experiments aimed at measuring IgG concentrations in the medium, PBMCs are seeded at the concentration of 2×10^6 cells/ml (1 ml/well) in a 24- or 48-well flat-bottomed plate (wells of 2 and 1 ml, respectively) incubated at 37° C., in a humidified 95% air, 5% CO2 atmosphere for 2 weeks. […]

The next experiment deals with PBMC. Briefly: IgG production from PBMC (anti-human Ig-I125 radioimmunoassay of supernatants). The experiment is classed as cell-based. The note with it: Grp94 10 ng/ml (maximum of stimulation), 2-week incubation at 37° C. The procedure:
In experiments aimed at measuring IgG concentrations in the medium, PBMCs are seeded at the concentration of 2×10^6 cells/ml (1 ml/well) in a 24- or 48-well flat-bottomed plate (wells of 2 and 1 ml, respectively) incubated at 37° C., in a humidified 95% air, 5% CO2 atmosphere for 2 weeks. Controls included triplicate wells containing medium only (or the diluent in which substances were dissolved, where appropriate), puromicine (100 μg/ml, final concentration, useful for detecting background Abs, i.e., Abs already present in circulation non specifically bound to blood cells), and a standard mitogen (pockweed mitogen, PWM) diluted 1:50 (v:v). Treatment included the addition of Grp94 (at final concentrations of 1, 10 and 100 ng/ml), both alone and in complexes with IgG, and IgG alone (at the final concentration necessary to give a 1:1 molar ratio with Grp94), after each solution was incubated at 37° C. for 1 h.
5. IgG production from PBMC: on a 96-well (200 μl each) flat-bottomed Optiplate (Packard) were laid down 50 μl of anti-human IgG Abs (5 μg/ml in NaHCO3/Na2CO3 buffer, ph 9.6) that were allowed to dry out overnight. Afterwards, 200 μl of PBS with 3% BSA and 0.02% NaN3 were added to saturate aspecific binding sites in Abs. […] The plate was then dried after additional washings and radioactivity measured after the addition of 30 μl of Microscint 20 in each well. […]

With `N#CC(=C(/N)Sc1ccccc1N)/C(C#N)=C(\N)Sc1ccccc1N` [U0126, reference compound], the “HSP90 expression in treated HUVECs in the presence of the inhibitor” value in experiment [1] (U0126 10 μM added to cells treated with Grp94 10 ng/ml alone or with IgG) is reported as “blocked”. Further, the “morphology of HUVECs with inhibitor on its own” value in the experiment on HUVECs [2] (U0126 10 μM alone) was “pre-angiogenic transformation”. Also, the “number of control cells in presence of the inhibitor” value in experiment [3] is 80.38±4.02×10^3.

B1: Grp94: Glucose-regulated protein 94, native, purified from the microsomal fraction of rat hepatocytes (protein, UniProt Q66HD0 22-804, looked up)
Endoplasmin: DDEVDVDGTVEEDLGKSREGSRTDDEVVQREEEAIQLDGLNASQIRELREKSEKFAFQAEVNRMMKLIINSLYKNKEIFLRELISNASDALDKIRLISLTDENALAGNEELTVKIKCDREKNLLHVTDTGVGMTREELVKNLGTIAKSGTSEFLNKMTEAQEDGQSTSELIGQFGVGFYSAFLVADKVIVTSKHNNDTQHIWESDSNEFSVIADPRGNTLGRGTTITLVLKEEASDYLELDTIKNLVRKYSQFINFPIYVWSSKTETVEEPLEEDETAQEEKEEADDEAAVEEEEEEKKPKTKKVEKTVWDWELMNDIKPIWQRPSKEVEEDEYKAFYKSFSKESDDPMAYIHFTAEGEVTFKSILFVPTSAPRGLFDEYGSKKSDYIKLYVRRVFITDDFHDMMPKYLNFVKGVVDSDDLPLNVSRETLQQHKLLKVIRKKLVRKTLDMIKKIADEKYNDTFWKEFGTNIKLGVIEDHSNRTRLAKLLRFQSSHHSTDITSLDQYVERMKEKQDKIYFMAGSSRKEAESSPFVERLLKKGYEVIYLTEPVDEYCIQALPEFDGKRFQNVAKEGVKFDESEKSKESREATEKEFEPLLNWMKDKALKDKIEKAVVSQRLTESPCALVASQYGWSGNMERIMKAQAYQTGKDISTNYYASQKKTFEINPRHPLIRDMLRRVKEDEDDKTVMDLAVVLFETATLRSGYLLPDTKAYGDRIERMLRLSLNIDPEAQVEEEPEEEPEDTTEDTTDDSEQDEEETDAGAEEEEEEQETEKEPTEKDEL
Consider B1, for which the “binding to IgG (dot-blot)” value with human IgG (Grp94 after boiling for 2 min) is on record as “did not bind IgG any longer”; in the experiment with human IgG (untreated Grp94 2 μg dots) it was “stable binding”. Also, the “HSP90, HSP70 and IgG in conditioned media (Western blotting)” value in experiment [1] (HUVEC media after 20-h treatment, Grp94 10 ng/ml, no positivity in control media, mostly in complexes with IgG) was “positive immune reaction”. For the same molecule, the “HSP70 in whole cell lysates (Western blotting)” value in experiment [1] (HUVECs, Grp94 10 ng/ml, 20-h incubation, constitutive form in any lysates) is “additional bands referred to inducible species of HSP70”. Moreover, the “HSP90 in whole cell lysates (Western blotting)” value in experiment [1] (HUVECs, Grp94 10 ng/ml, 20-h incubation, not present in control lysates) is “positivity”. In addition, the “intensity of HSP90 fluorescence (confocal microscopy)” value in the experiment on HUVECs [4] (especially in complexes with IgG) is given as “increased”. Also, in the experiment with HUVECs [4] (versus control), the “fluorescence of HSP70 (confocal microscopy)” value was “increased”. In addition, the “increase in PBMC number with respect to the control value” was 5% in experiment [5] (Grp94 1 ng/ml), 63% in experiment [5] (Grp94 10 ng/ml) and 47% in experiment [5] (Grp94 100 ng/ml). The “morphogenic transformation of HUVECs” value in the experiment with HUVECs [2] (Grp94 10 ng/ml, alone or with IgG 1:1, not changed significantly by U0126, versus cobblestone morphology of control) is on record as “angiogenic modifications”. Moreover, in the experiment on PBMC, the “IgG production (radioactivity)” value is on record as 316 cpm.
